One experiment addresses T1, recombinant DMP1 (Mus musculus, UniProt Q8CE22).
T1 construct: made in house; host or cells: Sf9 insect cells, pAcYM1 baculovirus vector; used as crude lysate (~4 ng DMP1 per reaction)
T1 sequence (Q8CE22 1-761): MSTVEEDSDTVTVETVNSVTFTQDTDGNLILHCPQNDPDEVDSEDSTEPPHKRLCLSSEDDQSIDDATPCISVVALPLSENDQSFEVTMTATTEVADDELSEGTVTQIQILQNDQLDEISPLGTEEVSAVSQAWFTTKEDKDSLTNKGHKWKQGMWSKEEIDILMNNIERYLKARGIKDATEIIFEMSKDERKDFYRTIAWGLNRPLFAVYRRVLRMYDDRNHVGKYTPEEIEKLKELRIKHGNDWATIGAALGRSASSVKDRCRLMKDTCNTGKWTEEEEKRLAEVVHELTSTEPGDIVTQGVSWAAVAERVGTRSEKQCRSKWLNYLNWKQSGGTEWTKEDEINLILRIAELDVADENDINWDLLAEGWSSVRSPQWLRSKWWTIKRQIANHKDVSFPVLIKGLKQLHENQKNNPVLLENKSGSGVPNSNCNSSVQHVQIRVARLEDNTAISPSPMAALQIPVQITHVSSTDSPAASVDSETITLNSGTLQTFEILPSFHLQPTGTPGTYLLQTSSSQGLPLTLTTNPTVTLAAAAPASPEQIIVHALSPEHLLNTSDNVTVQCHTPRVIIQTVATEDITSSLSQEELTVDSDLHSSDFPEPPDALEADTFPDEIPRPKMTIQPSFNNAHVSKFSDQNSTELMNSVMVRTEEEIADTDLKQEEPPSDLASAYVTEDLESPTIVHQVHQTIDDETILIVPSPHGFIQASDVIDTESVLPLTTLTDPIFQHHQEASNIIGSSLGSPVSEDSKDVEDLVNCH
The experiment is described as follows: EMSA competition, recombinant DMP1 and 281 base pair ARF promoter fragment. The following applies: 200-fold excess of unlabelled oligonucleotide. In kind it is binding. The protocol:
Electrophoretic mobility shift assay (EMSA). Recombinant DMP1 protein was prepared in Sf9 cells [Hirai and Sherr, Mol. Cell. Biol. 16:6457-6467 (1996)]. Purified bacterial proteins representing the Ets1 DNA binding domain or full-length Ets1 [Inoue, et al., J. Biol. Chem. 273:29188-29194 (1998)] were used. EMSAs were performed [Inoue and Sherr, Mol. Cell. Biol. 18:1590-1600 (1998)] using either a 281-bp genomic fragment (−225 to +56) or double-stranded oligonucleotides containing the DMP1/Ets site obtained by annealing oligonucleotide 5′-[…]-3′ (sense strand SEQ ID NO:41); DMP1/Ets consensus sequence underlined) with a complementary antisense strand. For competition experiments, a 200-fold excess of unlabelled oligonucleotides was added to reaction mixtures before the probe. To verify the identity of the proteins in shifted complexes, reaction mixtures were incubated with control nonimmune rabbit serum (NRS), serum AF [Hirai and Sherr, Mol. Cell. Biol. 16:6457-6467 (1996)] and M-10 (both to DMP1 carboxylterminal epitopes), S-19 (DMP1 N-terminus), or C-20 (Ets1 C-terminus) before electrophoresis. M-10, S-19, and C-20 were from Santa Cruz Biotechnology.
The nucleotide sequence of the proximal promoter region of the murine ARF gene relative to the transcription initiation site as defined by S1 mapping analysis was determined (FIG. 13). […]

The next experiment has as its system wild-type MEFs. The experiment is described as follows: BrdU incorporation / cell cycle arrest in wild-type MEFs. In kind it is cell-based, mouse. Conditions: retroviral infection. The protocol: BrdU incorporation and immunofluorescence. Wild-type or ARF-null MEFs (4×10^4 cells) were seeded on gelatin-coated coverslips 16 hours before virus infection. Cells were infected three times with empty vector, or vectors expressing murine DMP1, human c-Myc, human E2F-1, or human Ets1. Cells were labeled 36 hours after virus infection with bromodeoxyuridine (BrdU, Sigma) for 14 hours in complete medium. For pulse labeling, MEFs were treated with 2 μM4-HT for 36 hours and labeled with BrdU for three hours at different intervals throughout the inductive phase. Cells were fixed in ice-cold methanol-acetone (1:1) for 10 min at −20° C. and then were stained with affinity-purified antibodies to DMP1 (AF) [Hirai and Sherr, Mol. Cell. […]
Based on the above observations, it was determined as to whether introduction of DMP1 would induce synthesis of the endogenous ARF protein in normal diploid fibroblast strains. […] Although the blot was normalized for protein input, the levels of p19^ARF induced by DMP1 were calculated to be 2-fold higher than those induced by Myc, because fewer cells were productively infected with the DMP1 virus in this experiment (see FIG. 15A).
On the technique in general: Incorporation of labelled thymidine or its analogues reports DNA synthesis.

In the case of “M3: DMP1 deletion mutant (NcoI), amino acids 1-458 of SEQ ID NO:1”, the “competition for DMP1 binding to the 281 base pair ARF promoter fragment” value in the experiment with recombinant DMP1 is “did not compete”.

Consider “DMP1: murine cyclin D-associated myb-like transcription factor, 761 amino acids, SEQ ID NO:1”, for which the cell cycle arrest result in the experiment with wild-type MEFs is reported as “underwent cell cycle arrest”.
